Reference: the supplement of paper PMC9112550, “Optimization of the antimicrobial peptide Bac7 by deep mutational scanning” (BMC Biology, 2022)

Test system: Escherichia coli TOP10
Test: shrunken log2 fold change of peptide-encoding DNA abundance (4.5 h post-induction vs induction); higher = less antimicrobial activity (less host growth inhibition)
Details: time post-induction: 4.5 h; library: site-saturation at positions 5, 18, 19, 20
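Further: peptides expressed intracellularly from a pBAD plasmid library in pooled LB shake-flask culture, induced with 0.3% L-arabinose, DNA abundance read by NGS, three biological replicates, DESeq2 with apeglm shrinkage.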

Sequence | shrunken log2 fold change
RRIRQRPPRLPRPRPRPAHAPRP | 0.0691
RRIRLRPPRLPRPRPRPMLPPRP | -0.164
RRIRWRPPRLPRPRPRPYGAPRP | -0.0532
RRIRKRPPRLPRPRPRPWRHPRP | 0.094
RRIRDRPPRLPRPRPRPRRPPRP | 0.652
RRIRWRPPRLPRPRPRPRMSPRP | 0.139
RRIRCRPPRLPRPRPRPVDNPRP | -0.00721
RRIRGRPPRLPRPRPRPEELPRP | 1.39
RRIRPRPPRLPRPRPRPSCMPRP | -0.279
RRIRARPPRLPRPRPRPTMWPRP | 0.516
RRIRNRPPRLPRPRPRPTRGPRP | 0.725
RRIRDRPPRLPRPRPRPAASPRP | 0.049
RRIRQRPPRLPRPRPRPTGNPRP | -0.0862
RRIRFRPPRLPRPRPRPDYNPRP | -0.422
RRIRYRPPRLPRPRPRPRIHPRP | -0.287
RRIRARPPRLPRPRPRPMTCPRP | -0.29
RRIRARPPRLPRPRPRPDDKPRP | -0.112
RRIRLRPPRLPRPRPRPLLCPRP | -0.0707
RRIRGRPPRLPRPRPRPNVFPRP | 0.27
RRIRTRPPRLPRPRPRPRWQPRP | 0.47
RRIRSRPPRLPRPRPRPQMSPRP | -0.0374
RRIRVRPPRLPRPRPRPWFLPRP | -0.386
RRIRNRPPRLPRPRPRPSKQPRP | 0.00527
RRIRIRPPRLPRPRPRPTWIPRP | -0.415
RRIRARPPRLPRPRPRPGATPRP | 0.959

Sequence | shrunken log2 fold change
RRIRARPPRLPRPRPRPTHGPRP | 0.644
RRIRTRPPRLPRPRPRPHKFPRP | -0.18
RRIRYRPPRLPRPRPRPPRKPRP | 0.319
RRIRARPPRLPRPRPRPEQTPRP | 1.18
RRIRERPPRLPRPRPRPIEVPRP | -0.00196
RRIRNRPPRLPRPRPRPKWCPRP | -0.00686
RRIRFRPPRLPRPRPRPVPLPRP | -0.118
RRIRDRPPRLPRPRPRPNKWPRP | -0.0744
RRIRCRPPRLPRPRPRPIIAPRP | -0.494
RRIRNRPPRLPRPRPRPEFCPRP | 0.0216
RRIRDRPPRLPRPRPRPIAMPRP | 0.384
RRIRNRPPRLPRPRPRPQPSPRP | 0.186
RRIRLRPPRLPRPRPRPMFWPRP | 0.145
RRIRCRPPRLPRPRPRPCETPRP | 0.0192
RRIRVRPPRLPRPRPRPYARPRP | -0.243
RRIRERPPRLPRPRPRPWVEPRP | 0.0665
RRIRTRPPRLPRPRPRPKYDPRP | -0.434
RRIRLRPPRLPRPRPRPWAGPRP | -0.0317
RRIRMRPPRLPRPRPRPKINPRP | -0.194
RRIRNRPPRLPRPRPRPIRWPRP | 0.18
RRIRRRPPRLPRPRPRPVKMPRP | 0.101
RRIRGRPPRLPRPRPRPHYYPRP | -0.119
RRIRMRPPRLPRPRPRPSKGPRP | -0.071
RRIRCRPPRLPRPRPRPEDRPRP | -0.0137
RRIRFRPPRLPRPRPRPYPLPRP | -0.604

Sequence | shrunken log2 fold change
RRIRIRPPRLPRPRPRPPGYPRP | 0.0184
RRIRTRPPRLPRPRPRPCIYPRP | -0.264
RRIRNRPPRLPRPRPRPDQEPRP | -0.00963
RRIRPRPPRLPRPRPRPRDMPRP | 0.201
RRIRTRPPRLPRPRPRPTQTPRP | -0.0408
RRIRGRPPRLPRPRPRPVVWPRP | 1.26
RRIRPRPPRLPRPRPRPDKLPRP | 0.038
RRIRYRPPRLPRPRPRPSVYPRP | -0.888
RRIRDRPPRLPRPRPRPMYVPRP | -0.243
RRIRNRPPRLPRPRPRPVINPRP | -0.512
RRIRPRPPRLPRPRPRPWHWPRP | -0.0102
RRIRCRPPRLPRPRPRPARRPRP | 0.555
RRIRMRPPRLPRPRPRPLVVPRP | 0.0644
RRIRQRPPRLPRPRPRPHDHPRP | -0.0539
RRIRNRPPRLPRPRPRPHGYPRP | -0.066
RRIRPRPPRLPRPRPRPDLYPRP | -0.153
RRIRHRPPRLPRPRPRPQDCPRP | -0.01
RRIRIRPPRLPRPRPRPYHAPRP | -0.0781
RRIRMRPPRLPRPRPRPIHEPRP | -0.301
RRIRLRPPRLPRPRPRPDIYPRP | -0.458
RRIRCRPPRLPRPRPRPQHDPRP | -0.219
RRIRYRPPRLPRPRPRPPLAPRP | 0.13
RRIRHRPPRLPRPRPRPGHAPRP | -0.0876
RRIRPRPPRLPRPRPRPNWNPRP | -0.184
RRIRDRPPRLPRPRPRPEGAPRP | 1.78

Sequence | shrunken log2 fold change
RRIRARPPRLPRPRPRPNWCPRP | 0.206
RRIRIRPPRLPRPRPRPRLTPRP | -0.0559
RRIRNRPPRLPRPRPRPIKNPRP | -0.108
RRIRYRPPRLPRPRPRPEHFPRP | -0.0545
RRIRYRPPRLPRPRPRPLNPPRP | 0.0535
RRIRTRPPRLPRPRPRPVGTPRP | -0.201
RRIRLRPPRLPRPRPRPEGKPRP | -0.00133
RRIRIRPPRLPRPRPRPIPCPRP | -0.00867
RRIRFRPPRLPRPRPRPYMGPRP | -0.225
RRIRCRPPRLPRPRPRPNEGPRP | -0.1
RRIRNRPPRLPRPRPRPAPSPRP | 0.271
RRIRVRPPRLPRPRPRPAVSPRP | 0.0786
RRIRTRPPRLPRPRPRPEPDPRP | 0.286
RRIRWRPPRLPRPRPRPAWSPRP | 0.265
RRIRRRPPRLPRPRPRPIFRPRP | 0.584
RRIRHRPPRLPRPRPRPQMNPRP | -0.312
RRIRSRPPRLPRPRPRPQIQPRP | -0.118
RRIRTRPPRLPRPRPRPKDFPRP | -0.00116
RRIRSRPPRLPRPRPRPTLSPRP | 0.0887
RRIRGRPPRLPRPRPRPPGCPRP | 0.895
RRIRLRPPRLPRPRPRPPGAPRP | 0.54
RRIRGRPPRLPRPRPRPSRTPRP | 0.536
RRIRIRPPRLPRPRPRPRLKPRP | 0.0139
RRIRNRPPRLPRPRPRPDKLPRP | -0.168
RRIRGRPPRLPRPRPRPYPVPRP | 0.0121

Sequence | shrunken log2 fold change
RRIRHRPPRLPRPRPRPLGKPRP | -0.239
RRIRWRPPRLPRPRPRPLAMPRP | 0.0898
RRIRGRPPRLPRPRPRPKNWPRP | 0.466
RRIRIRPPRLPRPRPRPWTDPRP | -0.111
RRIRERPPRLPRPRPRPTRLPRP | 0.576
RRIRARPPRLPRPRPRPHHFPRP | -0.0814
RRIRVRPPRLPRPRPRPDWRPRP | 0.141
RRIRPRPPRLPRPRPRPAVEPRP | 0.014
RRIRTRPPRLPRPRPRPWSWPRP | -0.0374
RRIRFRPPRLPRPRPRPKKLPRP | 0.173
RRIRPRPPRLPRPRPRPRQRPRP | 0.382
RRIRFRPPRLPRPRPRPWWYPRP | -0.238
RRIRKRPPRLPRPRPRPECVPRP | 1.69
RRIRLRPPRLPRPRPRPEWQPRP | -0.0018
RRIRRRPPRLPRPRPRPPSHPRP | 0.586
RRIRIRPPRLPRPRPRPLALPRP | -0.138
RRIRERPPRLPRPRPRPKWNPRP | -0.447
RRIRARPPRLPRPRPRPNEMPRP | -0.0653
RRIRLRPPRLPRPRPRPLAHPRP | -0.174
RRIRKRPPRLPRPRPRPACFPRP | -0.0348
RRIRWRPPRLPRPRPRPLMWPRP | 0.173
RRIRSRPPRLPRPRPRPCCWPRP | -0.0914
RRIRWRPPRLPRPRPRPVDHPRP | 0.0245
RRIRHRPPRLPRPRPRPARLPRP | 0.568
RRIRERPPRLPRPRPRPCHSPRP | -0.0339
